Reference: IntAct's records for PubMed 23824069

B1: Phosphatidylinositol 4,5-bisphosphate 3-kinase catalytic subunit gamma isoform (Homo sapiens), P48736 (parent)
chain: MELENYKQPVVLREDNCRRRRRMKPRSAAASLSSMELIPIEFVLPTSQRKCKSPETALLHVAGHGNVEQMKAQVWLRALETSVAADFYHRLGPHHFLLLYQKKGQWYEIYDKYQVVQTLDCLRYWKATHRSPGQIHLVQRHPPSEESQAFQRQLTALIGYDVTDVSNVHDDELEFTRRGLVTPRMAEVASRDPKLYAMHPWVTSKPLPEYLWKKIANNCIFIVIHRSTTSQTIKVSPDDTPGAILQSFFTKMAKKKSLMDIPESQSEQDFVLRVCGRDEYLVGETPIKNFQWVRHCLKNGEEIHVVLDTPPDPALDEVRKEEWPLVDDCTGVTGYHEQLTIHGKDHESVFTVSLWDCDRKFRVKIRGIDIPVLPRNTDLTVFVEANIQHGQQVLCQRRTSPKPFTEEVLWNVWLEFSIKIKDLPKGALLNLQIYCGKAPALSSKASAESPSSESKGKVQLLYYVNLLLIDHRFLLRRGEYVLHMWQISGKGEDQGSFNADKLTSATNPDKENSMSISILLDNYCHPIALPKHQPTPDPEGDRVRAEMPNQLRKQLEAIIATDPLNPLTAEDKELLWHFRYESLKHPKAYPKLFSSVKWGQQEIVAKTYQLLARREVWDQSALDVGLTMQLLDCNFSDENVRAIAVQKLESLEDDDVLHYLLQLVQAVKFEPYHDSALARFLLKRGLRNKRIGHFLFWFLRSEIAQSRHYQQRFAVILEAYLRGCGTAMLHDFTQQVQVIEMLQKVTLDIKSLSAEKYDVSSQVISQLKQKLENLQNSQLPESFRVPYDPGLKAGALAIEKCKVMASKKKPLWLEFKCADPTALSNETIGIIFKHGDDLRQDMLILQILRIMESIWETESLDLCLLPYGCISTGDKIGMIEIVKDATTIAKIQQSTVGNTGAFKDEVLNHWLKEKSPTEEKFQAAVERFVYSCAGYCVATFVLGIGDRHNDNIMITETGNLFHIDFGHILGNYKSFLGINKERVPFVLTPDFLFVMGTSGKKTSPHFQKFQDICVKAYLALRHHTNLLIILFSMMLMTGMPQLTSKEDIEYIRDALTVGKNEEDAKKYFLDQIEVCRDKGWTVQFNWFLHLVLGIKQGEKHSA
partner: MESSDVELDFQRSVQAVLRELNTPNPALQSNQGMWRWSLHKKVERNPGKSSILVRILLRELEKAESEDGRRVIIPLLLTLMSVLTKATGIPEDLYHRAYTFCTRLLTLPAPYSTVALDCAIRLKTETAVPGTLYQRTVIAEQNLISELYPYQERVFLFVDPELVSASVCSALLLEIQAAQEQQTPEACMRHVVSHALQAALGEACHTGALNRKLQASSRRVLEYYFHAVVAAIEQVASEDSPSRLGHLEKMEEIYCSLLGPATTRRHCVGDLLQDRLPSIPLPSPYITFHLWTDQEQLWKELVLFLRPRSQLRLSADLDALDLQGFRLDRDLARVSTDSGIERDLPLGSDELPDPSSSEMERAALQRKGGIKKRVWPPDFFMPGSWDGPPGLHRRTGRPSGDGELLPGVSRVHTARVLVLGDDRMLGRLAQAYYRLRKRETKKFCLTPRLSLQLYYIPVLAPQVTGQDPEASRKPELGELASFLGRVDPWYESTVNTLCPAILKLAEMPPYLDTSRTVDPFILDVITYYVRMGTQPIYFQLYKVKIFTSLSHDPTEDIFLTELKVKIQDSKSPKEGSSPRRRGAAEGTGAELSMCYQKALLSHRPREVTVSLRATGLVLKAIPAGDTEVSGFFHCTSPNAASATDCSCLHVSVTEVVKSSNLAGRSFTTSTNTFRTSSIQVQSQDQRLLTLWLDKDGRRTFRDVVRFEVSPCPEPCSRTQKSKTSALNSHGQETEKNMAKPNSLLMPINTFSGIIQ

Variants of: B1
Details: with pi3r6_mouse Pik3r6, Q3U6Q4

Row | effect of a mutation on the interaction | Variant
1 | decreasing interaction strength | S582E
2 | decreasing interaction strength | S582D
